“And” between values parts separate entries of the source, which are not always exact repeats. Equal entries are not always repeated.
T1: recombinant, full-length human claudin-1 (human), O95832
T1 chain: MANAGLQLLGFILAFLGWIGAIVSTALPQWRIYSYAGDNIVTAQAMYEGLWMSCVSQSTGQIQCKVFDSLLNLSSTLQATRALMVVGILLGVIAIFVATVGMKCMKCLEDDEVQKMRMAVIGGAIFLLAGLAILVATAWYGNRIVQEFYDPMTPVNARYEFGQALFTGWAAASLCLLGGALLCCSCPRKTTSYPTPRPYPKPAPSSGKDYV


Tests used:
[1] = molecular target: recombinant, full-length human CD81 with six putative palmitoylation sites mutated to alanine (human) (UniProt P60033); assay: dynamic light scattering; single purified proteins in detergent micelles (claudin-1 in foscholine-10, CD81 in βOG), with and without CHEMS, 20°C; oligomeric state predicted from the hydrodynamic radius
[2] = molecular target: recombinant, full-length human claudin-1 (human) (UniProt O95832); assay: dynamic light scattering; purified proteins in detergent micelles (claudin-1 in foscholine-10, CD81 and CD82 in βOG) mixed at a 1:2 molar ratio, with and without CHEMS, 20 mM MOPS pH 8, 1% βOG, 20°C, followed for 23-36 h
[3] = molecular target: T1, recombinant, full-length human …; assay: AUC; claudin-1 in βOG micelles; sedimentation velocity, continuous c(s) distribution model (SEDFIT); settings: remark: other sources report otherwise
[4] = molecular target: T1, recombinant, full-length human …; assay: reducing SDS-PAGE (Coomassie); proteins solubilised in βOG and eluted from a nickel affinity column; settings: remark: other sources report otherwise
[5] = molecular target: T1, recombinant, full-length human …; assay: non-reducing SDS-PAGE with immunoblot; P. pastoris total membranes, 1 µg protein per well, sample buffer without β-mercaptoethanol, 12% gel, blot with anti-His6; settings: remark: other sources report otherwise
[6] = molecular target: T1, recombinant, full-length human …; assay: dynamic light scattering; single purified proteins in detergent micelles (claudin-1 in foscholine-10, CD81 in βOG), with and without CHEMS, 20°C; oligomeric state predicted from the hydrodynamic radius; settings: remark: other sources report otherwise

stoichiometry N [3]	stoichiometry N [4]	stoichiometry N [5]	stoichiometry N [6]	Molecule	stoichiometry N [1]	stoichiometry N [2]
				recombinant, full-length human CD81 with six putative palmitoylation sites mutated to alanine (from UniProt P60033 1-236) (natural protein)	2	2
2	2	2 and 3	2	recombinant, full-length human claudin-1, O95832 1-211 (natural protein) MANAGLQLLGFILAFLGWIGAIVSTALPQWRIYSYAGDNIVTAQAMYEGLWMSCVSQSTGQIQCKVFDSLLNLSSTLQATRALMVVGILLGVIAIFVATVGMKCMKCLEDDEVQKMRMAVIGGAIFLLAGLAILVATAWYGNRIVQEFYDPMTPVNARYEFGQALFTGWAAASLCLLGGALLCCSCPRKTTSYPTPRPYPKPAPSSGKDYV		
